Article PMC1361615

Biological target: His-tagged M.RsrI (UniProt P14751 1-319)
Experiment: size-exclusion chromatography

Sequence of His-tagged M.RsrI (P14751 whole entry): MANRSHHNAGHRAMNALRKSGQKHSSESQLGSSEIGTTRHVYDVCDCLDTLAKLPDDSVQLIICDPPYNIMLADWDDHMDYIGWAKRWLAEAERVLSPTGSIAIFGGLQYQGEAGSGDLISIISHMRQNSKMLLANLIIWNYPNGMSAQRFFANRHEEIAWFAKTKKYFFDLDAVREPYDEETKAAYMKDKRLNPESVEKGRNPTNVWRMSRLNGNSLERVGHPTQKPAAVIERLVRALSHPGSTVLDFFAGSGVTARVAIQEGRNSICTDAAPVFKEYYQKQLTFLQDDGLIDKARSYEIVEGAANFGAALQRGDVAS

B1: 25 bp unmethylated duplex, gel filtration (dsDNA)
DNA 1: GGCAGACACGGAATTCCACAGACGG
DNA 2: CCGTCTGTGGAATTCCGTGTCTGCC
modifications: none
binding result: binds
